The source of these data is the DeepSol protein solubility set.

This data set is described as follows: soluble on expression in E. coli; label from the status in PepcDB or PDB records.
With “MATLDVNPELYQAQLADKIARLKAMFVDYSMPELEVFESPVANYRMRAEFRIWHEGDDMYYIMFNQETREKYRVDQFPAASRLINDLMPLLMDAMKGSPILRHKLFQVDFLSTLSGEILVSLLYHRQLSEEWITAAQALKQRLNDEGFNLNLIGRARKMKVVLDRDYVVENLQVNGQPYVYKQVENSFTQPNAKVAEKMLEWAVDCTQESKGDLLELYCGNGNFSLALAQNFERVLATELAKPSVEAAQFNIAANQIGNVQIIRMSAEEFTQAMEGKREFNRLKDAGVDLQSYRCNTIFVDPPRSGMDIDTCKMVQGYERILYISCNPETLQENLQVLGETHQVVRFALFDQFPYTHHMEAGVMLERKK”, the “soluble on expression in E. coli” value is given as “not soluble”.
Consider “MSLNEITVSLDVIIKNKNVMVSSLSVAKAFDRQHSHILRSIEDIKRDWDSLIQSKNGLNRNIIPLKSQGNKQVIFTDYFKESEYIAENGRLVKFFEMNRNGFMLLANSFNGKRILPIKLAFIERFDELEHITLEQAKETENRKNLNQAIKESPHFKPFYYSRFSDFLCQLITHNKYKTVKKLREDKGYYGKQFSKIPLKSMLDSEEDLKRLQKLENSIIAWLEIDYSFREIKAFLTKEKAQPLPTKEGHHHHHH”, for which the “soluble on expression in E. coli” value is “not soluble”.
As for “MGSDKIHHHHHHLGILDAPAVQPSKVGLEALYAKTSASLGLFHTSLAGRHFAPCKILVVGDSISEGAGATLNIRNRWQDRLKENLRSRFPTDGSPGTTLHYVPAMNVVNMPGDMAVRSAGVTTGTSFGFGARHAQLTAAGHTVTFTVTGTSAKVVYPKSSGGGSFTWQVDGGTVSSAVSQSAGSLTDGFTTDIPLGASGSHTVVIAWVSGGSVFIDGLLVYNGDETKGIHVIDGAHSGWGAQNFQLNGIQFYQGSLTTMLQPSLVIIALGINDFAFGSLSIANYKIHMQSNIDRYRGAIPTKPPSILLVAMHRRSPVSAVATWAEYVQAMKELAQANDGVAFLDLSARLPQVSGDTRGLYADEVHPANLGHSAIADNVTSFIVPR”, the “soluble on expression in E. coli” value is given as “not soluble”.
Consider “MAHHHHHHMDAFRSLTIGTKFSAARNEEAAKLFRNAGKDKGSHGFPDAIGADGAVTLENASDMGSSSLSVPPPSATLNLFGRPTRSHADANAHLGVSAGSDAAAAANTASENKALKAITFKKKRNIWRRNDLQVTGTDLPAPIEHFSDLVRPPLNVPRNVVNNLFARQHKVPTPIQMQAISSLIHHRDVLACAPTGSGKTIAFLVPLFALLKAPDASCGVRALIVTPTAELAQQIEREAFFLMKGQRWKFVQHGQTTKKKDIFIATPGRILSLLEQKLLDLSNVQYLVFDEGDRLWDSRTDFLTVIDRILTACTRTDKVVSLFTATLSEKVEAAARSVMGADPVRIIVHGRRSANTHVKQRLVFCGNELGKVVAMRNLVREGITPPVLVFVQSVERSKELYEEIRMEGLHMAIMHAKMTVEQREETVLQFRLGKIWVLVTTELLARGIDFKNVGTVINFDFPATVDSYIHRVGRTGRAGKEGTAITFFTEDDKERLPPIAKVMQDSGNAVEDWILGIKVDRSTRRRLERTTPQRTIVSTRKRMLVAQQRVQRQYRRLEAEKAAKQASKRSKGCGDCDRDDGDDSTDDA”, for which the “soluble on expression in E. coli” value is listed as “not soluble”.
Under “MLTFKYLLASLLILLVSSQTWGQQSYGNSNQGYGQQQQGFSGFGQGSATNRQGMTGQGLLESSYQQGYGQNQGSMQGYSQQGYGGNSQQDYGYSQSQGSGMGVQGYGGSSQSYGQQAFAQQQRPQQGFQSNGFSGQQASGSMNSFGGQGGYGQNQNGFGGQSGFSGQSGWGSNSLSSANSNGNNNQGSSSGYQNNQGRHQGQGGGHSSSSNSVMSNNGYSSNSGYGNNNGPTPSFLNNVSSSAAQDYYNIVNNKSLTTNQINEQASNWASANSVQAQYIQYETNRSAIHTQATQNVSDIINNLATVQASIEGIQSNTSSSENDRQSAFQALQQAHPMEYSVLTSLQNQHEQTQYARMGSNGNSNSNYGNSNFNSNYGNNGYNHNGNNYFESTTATSAATKKKTTKATSG” stands “not soluble”.
In the case of “MSLSRITTDQLRHAVLDRGSFVSWDSEPLAVPVADSYARELAAARAATGADESVQTGEGRVFGRRVAVVACEFDFLGGSIGVAAAERITAAVERATAERLPLLASPSSGGTRMQEGTVAFLQMVKIAAAIQLHNQARLPYLVYLRHPTTGGVFASWGSLGHLTVAEPGALIGFLGPRVYELLYGDPFPSGVQTAENLRRHGIIDGVVALDRLRPMLDRALTVLIDAPEPLPAPQTPAPVPDVPTWDSVVASRRPDRPGVRQLLRHGATDRVLLSGTDQGEAATTLLALARFGGQPTVVLGQQRAVGGGGSTVGPAALREARRGMALAAELCLPLVLVIDAAGPALSAAAEQGGLAGQIAHCLAELVTLDTPTVSILLGQGSGGPALAMLPADRVLAALHGWLAPLPPEGASAIVFRDTAHAAELAAAQGIRSADLLKSGIVDTIVPEYPDAADEPIEFALRLSNAIAAEVHALRKIPAPERLATRLQRYRRIGLEGHHHHHH” it was “not soluble”; in that of “MSANREKKKLETVIKNLEKKIEDQKANAGTKKKEAEQKENLRIEQEKIKKKKEQERLEVPPTPFDDLNSQSAKTLRVEKAIENLKFLGGKSTEFYRRVIGRLGKSGLFKWKMSKREGFYLYHACGLTRRKLRTLKAHFSKSGCSDPFPSVHEIMKIEKIVGAGEQFSVTEHDKDGEEVVAAHLVDVIKYLTDRIHHLIDNGNLVIGTDPIWLTILGDKGSDEFKLCLSIGNAKNPNSCCHLIPLGIFNDDEKSSNISNDLTPIVAQLNSLKELKLKVAGTDVTVPVQQFLGGDMKFQYDVLGHQGASSQFHCMFCNSLKSRLIGGYIRGANVTLRTAASYKENSGKDGNNYARKKSVSIRSRQSTKCDPRSLHTLMGLAQRFGFDYLILWAARIDNPTLTLTKTDIKRSKISKGRLNQLQESLKKLEKVVSGMETVQQVFQNYKNKRVDGRSCGETCHASICLFKDKKMKSAKGYDGRKVECNTCFQAVHAVCGGLWTLDDWELTISIFRENNRHLNELRSDLREKKSVIFSQGLKIDMLESQLSQRQTEFEYRSANAAANSFTRKDHGKLYHCFDIKNQDSTSVSDTMTCRCSMKPCVFYLDSLPAAKTPSLTQLRRIVVLMQQKPSQKIDPKEMLLMTSMHLPFPMQEPSTEYFNAISGCSTSYICVEEMGIGFSFRRHVEKLWMKNLPPATNGTDKAANDLKNQLKVRRNVGKHDRTSRYARKSHN”, “not soluble”.
Take “MGSDKIHHHHHHMQKLLSVIPSVDKLIKQLAGIALIQQYGHQAFVAQARQVIDSLRQHILTHQSLPVDQPADNLLSLIATNLQQTQQIAMKKVFNLTGTILHTNLGRAIWSEAAITAASDAMRHHSALEFDIEAGKRSHRDNTISQLLCEITGAEAACVVNNNAAAVLLMLATFAKGKEVIVSRGELVEIGGAFRIPDIMQQAGCKLVEVGTTNRTHLKDYRAAINENTALLMKVHTSNYQIQGFTHSVSEQQLVELGQEVGLPVMSDLGSGSLIDMATFGLPAEPLVQQKVASGVALVTFSADKLLGGPQAGIIVGKKADIEALQAHPLKRVLRCDKVILAGLEATLRHYLLPDQLTTHLPTLSLLTQSIDHLRVKATRLQNSLSKRLDARYHLQIEQSLAQIGSGALPTERLASLAVTITAPTQRDLLQLEQQFKMLKYPIIGRFAEQKLWLDLRSVAQFDQLIEMLEEK”: the “soluble on expression in E. coli” value is given as “not soluble”.
With “MKHLSPERLHVTQTAGITQLSPVNGRLYTLTHSDTTGALFLTVSRAFVTDQLTSQRDEVLGEWKQAGQQLVLFLYVFIGNRQMGRQENARRANVFKKELPLALEAIRYGDRAFFHTYPFCDWCPIFIHFTSEYPELNRTEYYGTPYLYR”, the “soluble on expression in E. coli” value was “not soluble”.
Under “MIEITVNDRLGKKVRIKCNPSDTIGDLKKLIAAQTGTRWEKIVLKKWYTIYKDHITLMDYEIHEGFNFELYYQ” stands “not soluble”; under “GYRALSFPDPLDSQPVQAIAFYPSTGSEHLSIIHGYRVEASEDAPIAMGRFPLLLLSHGNTGTPLALHDLATSLARQGFVVVAVVHPGDNDRDHSRLGSLSNLYGRPLQISEAISTALLDPVLAPYLNARQVGVIGYSAGGETALILAGAQPDLQRLRQYCLERPTDRDACKTQGELVADRDDLHAQADPRVGALMLMAPLSLMFGRHTLGDVHVPVLMYAGDDDQLLALDRNAEALARKLPQAPDYKLLAGAGHFVFMAPCSDEQREAAPLL”, “not soluble”; under “MAHHHHHHMCVPFKDQGQWIRQVALQVEEVAPSERGTDRPAAATPRHHMSVGVVDYYSKCGRICETVAVLCEEWMDSGYMDGFSSRLVKEANAGRSISDAPHRDAVFDSFCAPSPHCKKHAIFVRELDLALTTDTELRASIDADRPQEIETEEREMETMLHRLTREQGQSADVFSRDEIRRMKEAFVTGNKEDLQAVDPTAFDLTDDEFSTLKDYMHGEERKQQQQQRQRRPSAPSDADDL”, “not soluble”.
